# Experimental data: article PMC7949155
# Tests used:
# Assay in all cases: SEC-MALS; size-exclusion chromatography (Superdex 200) in 10-mM Tris, pH 7.5, 150-mM NaCl with Dawn Heleos II light scattering and Optilab T-rEX dRI detectors
# MlghC (C. jejuni) = biological target: MlghC (C. jejuni)
# DdahB (C. jejuni) = biological target: DdahB (C. jejuni)
# MlghB (C. jejuni) = biological target: MlghB (C. jejuni)
# DdahC (C. jejuni) = biological target: DdahC (C. jejuni)
substance,measurement,setting,value
MlghC (enzyme),stoichiometry N,MlghC (C. jejuni),2
DdahB (enzyme),stoichiometry N,DdahB (C. jejuni),2
MlghB (enzyme),stoichiometry N,MlghB (C. jejuni),2
DdahC (enzyme),stoichiometry N,DdahC (C. jejuni),2
